We go through 94 variants from the supplement of paper PMC10567573.

Sequences and labels used below:
B1: ZNF449 (parent)
chain: HTGERPYECTVCKKRFTRRSHLIG
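Note: lentivirally expressed fusions sorted by FACS into six bins by GFP to DsRed ratio, PSI derived from sequencing read proportions per bin multiplied by bin number.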

Variants of B1 are the subject of the data set. The data set can be described thus: protein stability index of a GFP-peptide fusion (GPS, HEK-293T) (PSI 1-6); higher = more stable. The following applies: c terminus: a fixed tail appended.
On to HTGERPYECTVCKKRFTRRSHLPG, for which the protein stability index came to 2.23. HTGERPYECTVCKKRFTRRSHLGG: the protein stability index is 1.81.

Take HTGERPYECTVCKKRFTRRSHLHG: the protein stability index was found to be 3.06. For HTGERPYECTVCKKRFTRRSHLTG the value was 2.41; for HTGERPYECTVCKKRFTRRSHLWG, 2.62; for HTGERPYECTVCKKRFTRRSHLMG, 1.7. Next, HTGERPYECTVCKKRFTRRSHLFG: 2.42; HTGERPYECTVCKKRFTRRSHLSG: 2.55. For HTGERPYECTVCKKRFTRRSHLLG the value was 2; for HTGERPYECTVCKKRFTRRSHLRG, 3.41. As for HTGERPYECTVCKKRFTRRSHLKG, the protein stability index was found to be 4.19. Take HTGERPYECTVCKKRFTRRSHLCG: the protein stability index was 3.61.

In the case of HTGERPYECTVCKKRFNRRSHLIG, the protein stability index is 2.21. Take HTGERPYECTVCKKRFIRRSHLIG: the protein stability index is 2.3. For HTGERPYECTVCKKRFSRRSHLIG the value was 1.94. As to HTGERPYECTVCKKRFDRRSHLIG, the protein stability index turned out to be 1.9. For HTGERPYECTVCKKRFPRRSHLIG the value was 1.78; for HTGERPYECTVCKKRFGRRSHLIG, 1.82. HTGERPYECTVCKKRFLRRSHLIG: the protein stability index turned out to be 2.19. For HTGERPYECTVCKKRFVRRSHLIG the value was 1.92. Take HTGERPYECTVCKKRFRRRSHLIG: the protein stability index came out at 2.95.

HTGERPYECTVCKKRFARRSHLIG: the protein stability index is 2.19. For the variant HTGERPYECTVCKKRFERRSHLIG, the protein stability index came out at 2.63. Next, HTGERPYECTVCKKRFHRRSHLIG: 3.25; HTGERPYECTVCKKRFKRRSHLIG: 2.52; HTGERPYECTVCKKRFWRRSHLIG: 2.03. On to HTGERPYECTVCKKRFCRRSHLIG, for which the protein stability index was determined as 4.7. Next, HTGERPYECTVCKKRFMRRSHLIG: 1.22; HTGERPYECTVCKKRFFRRSHLIG: 1.51; HTGERPYECTVCKKRFTRLSHLIG: 1.53.

Turning to HTGERPYECTVCKKRFTRQSHLIG, the protein stability index was 2.34.

Take HTGERPYECTVCKKRFTRHSHLIG: the protein stability index worked out at 1.96. Next, HTGERPYECTVCKKRFTRWSHLIG: 2.52; HTGERPYECTVCKKRFTRASHLIG: 1.71. Next, HTGERPYECTVCKKRFTRGSHLIG: 2.22; HTGERPYECTVCKKRFTRESHLIG: 2.01.

For the variant HTGERPYECTVCKKRFTRISHLIG, the protein stability index came out at 1.39. For HTGERPYECTVCKKRFTRCSHLIG the value was 4.07.

On to HTGERPYECTVCKKRFTRSSHLIG, for which the protein stability index stood at 2.76. Take HTGERPYECTVCKKRFTRDSHLIG: the protein stability index worked out at 1.62. For HTGERPYECTVCKKRFTRKSHLIG the value was 2.54; for HTGERPYECTVCKKRFTRTSHLIG, 1.84. Turning to HTGERPYECTVCKKRFTRYSHLIG, the protein stability index came out at 2.1.

With HTGERPYECTVCKKRFTRPSHLIG, the protein stability index stood at 1.94. For the variant HTGERPYECTVCKKRFTRMSHLIG, the protein stability index came out at 1.53. For HTGERPYECTVCKKRFTRRSHKIG the value was 2.35; for HTGERPYECTVCKKRFTRRSHEIG, 3.43. Next, HTGERPYECTVCKKRFTRRSHNIG: 2.08; HTGERPYECTVCKKRFTRRSHRIG: 3.15; HTGERPYECTVCKKRFTRRSHSIG: 2.92.

Turning to HTGERPYECTVCKKRFTRRSHWIG, the protein stability index came to 2.66.

On to HTGERPYECTVCKKRFTRRSHVIG, for which the protein stability index was 3.02.

Take HTGERPYECTVCKKRFTRRSHIIG: the protein stability index worked out at 2.23. Next, HTGERPYECTVCKKRFTRRSHMIG: 1.86. For HTGERPYECTVCKKRFTRRSHYIG the value was 2.33. Consider HTGERPYECTVCKKRFTRRSHFIG, for which the protein stability index turned out to be 1.3. For HTGERPYECTVCKKRFTRRSHQIG the value was 2.58; for HTGERPYECTVCKKRFTRRSHHIG, 3.

In the case of HTGERPYECTVCKKRFTRRSHDIG, the protein stability index is 2.6. Next, HTGERPYECTVCKKRFTRRSHCIG: 3.46.

As to HTGERPYECTVCKKRFTRRSHAIG, the protein stability index was 3.16. Next, HTGERPYECTVCKKRFTRREHLIG: 2.53. For HTGERPYECTVCKKRFTRRTHLIG the value was 2.18; for HTGERPYECTVCKKRFTRRIHLIG, 1.57. Next, HTGERPYECTVCKKRFTRRQHLIG: 1.88; HTGERPYECTVCKKRFTRRWHLIG: 3.27. HTGERPYECTVCKKRFTRRNHLIG: the protein stability index stood at 2.69. For HTGERPYECTVCKKRFTRRAHLIG the value was 1.44; for HTGERPYECTVCKKRFTRRCHLIG, 1.86. For HTGERPYECTVCKKRFTRRLHLIG the value was 2.44. For HTGERPYECTVCKKRFTRRGHLIG the value was 2.47.

On to HTGERPYECTVCKKRFTRRPHLIG, for which the protein stability index was determined as 2.31. As to HTGERPYECTVCKKRFTRRKHLIG, the protein stability index was determined as 2.26. For HTGERPYECTVCKKRFTRRHHLIG the value was 2.37; for HTGERPYECTVCKKRFTRRFHLIG, 1.9; for HTGERPYECTVCKKRFTRRMHLIG, 2.21.

Turning to HTGERPYECTVCKKRFTRRYHLIG, the protein stability index amounted to 3.34. In the case of HTGERPYECTVCKKRFTRRVHLIG, the protein stability index is 1.99. For HTGERPYECTVCKKRFTRRRHLIG the value was 2.9; for HTGERPYECTVCKKRFTRRDHLIG, 2.46; for HTGERPYECTVCKKRFTRRSHLIS, 2.61.

Consider HTGERPYECTVCKKRFTRRSHLIR, for which the protein stability index came to 2.39. For HTGERPYECTVCKKRFTRRSHLIK the value was 3.12; for HTGERPYECTVCKKRFTRRSHLIV, 1.6; for HTGERPYECTVCKKRFTRRSHLIP, 1.95. For HTGERPYECTVCKKRFTRRSHLIN the value was 2.39; for HTGERPYECTVCKKRFTRRSHLIM, 1.83. Next, HTGERPYECTVCKKRFTRRSHLIT: 2.45; HTGERPYECTVCKKRFTRRSHLIE: 1.92. For the variant HTGERPYECTVCKKRFTRRSHLIA, the protein stability index came to 2.27. Next, HTGERPYECTVCKKRFTRRSHLID: 2.81; HTGERPYECTVCKKRFTRRSHLIC: 2.48.

Turning to HTGERPYECTVCKKRFTRRSHLIH, the protein stability index worked out at 1.89. For HTGERPYECTVCKKRFTRRSHLIF the value was 1.2.
